Substrate in one data set: BHET
In words: Proxy for plastic degradation [HPLC-UV] (mmol). The settings on record: pH 8.

Substrate in the next data set: PET
In words: Proxy for plastic degradation [HPLC-UV] (mmol).

The text below walks through data of the PETadex activity labels (doi:10.1093/ismejo/wraf068).

B1: unnamed (protein)
chain: APAGPYNVGYVIYDFPFVSPDGALQSLTTAVWYPTDAEPTPYTYGDGRATGLVSLDGPVSPAGRPFPLVVFSHGYGGGGTANLFLTKHLASWGFVVASPDYPDPDQMVRIRGGGTNTPILQYLRNALRLARTGLDFPFDDYAFRPAGLRTVIDQMLAQNADDTSALHGAIDPDRIAVAGHSLGTFTALSVAGLDPQWTDPRIRAVLALSGGVFMWPTQDFAQVSVPIMFMYGEREAGQRERIGLADVAALTRAAYDVCQPPKFMLEVKGGTHFTFGQRVYEERRAGGDASLPERQVAVINSYAAAFLRLYLRNDTSAAATLQQTDPMLTLYRHDM
In the case of B1, the “Proxy for plastic degradation” value with BHET was 0; in the data set with PET (pH 8, 30 °C), 0; with PET (pH 8, 60 °C) it was 0.

B2: unnamed (protein)
chain: WGAQNHFYETVLVDTDENPRETHLVGQIDGVFTDENYGEYEVTIYYPAINSGVSQPPDKSGAPYPAIIFAHGWLTSKELYTWIGNYCAAQGYVTLLFSVPDPTSLEAFRQSVTGITKSIDYLLVQNQGGLLSGLINTSRIGVMGHSMGAMAVLIATTEDSRIKAAVSLAPGYFGSTTKKYVEACKSIRVPIQFQAGSLDKICPPSAVETYYNAVRIPPKEIIVINGADHIQFSDAPATLWANITLEEQHETSRKYFIAWFNYYLRDDFNYYAYLFGSEARKDMENGILSSLEYVERFDC
For the protein B2, the “Proxy for plastic degradation” value with BHET was 0; with PET (pH 6), 0.11; with PET (pH 6.5) it was 0.96; with PET (pH 7), 0.47; with PET (pH 7.5), 0.4; in the data set with PET (pH 8, 30 °C), 0. In addition, the “Proxy for plastic degradation” value with PET (pH 8, 40 °C) turned out to be 0.39; with PET (pH 8, 50 °C), 2.78; with PET (pH 8, 70 °C), 0.05; with PET (pH 8, 80 °C) it was 0.04.

B3: unnamed (protein)
chain: CGSDDDSAPGSPAGNEPFYAPDELGPFAVGRSTFTIVDADRGDRELPVDVWYPVDPEEATGAPSLYQVSILVWIFPLVFTTPSEVALDSPPVSEARRFPLIVFSHGSGGLRYQSFFLTEILASHGFVVVAPSHVGNTLLDEINGTFAPLTDMMVARPLDVSYLITRMLEKNEDAADPLYGTIDADRIGVCGHSFGGFTSLAMAAGFGADPPPDLDPEIPEDLEPVPPDPRVDAIVPIAPASSWFGDSELAGIDVPTLIIGGTLDTTTPIATENVRPYEMIPAPVFRADLDGAVHFSFSNSCDLIQGMREKGIPQALIDALLGAEFTAPCNPPSLDVEEAHRITNLYTVSLFETFLEDDSRYEKYLTEAYAEASEPNVTFYANPD
On to B3, for which the “Proxy for plastic degradation” value worked out at 0 in the data set with BHET; 0 with PET (pH 8, 30 °C); 0 with PET (pH 8, 60 °C).

B4: unnamed (protein)
chain: CGKDGGIMTQDVEFTSDDGVLLKGTLYLPAGISEKLPGVTLAHMNMNDRTSWAYYAEKLALEGYVVLAFDLRGWGESGGESDFHEMYRDVMAAVTYLANFGKVDRNRIASAGASMGGMASVIAASRTSSIKAVATVSSPPAWSESEPVKVIGKLPPRPVLVIAGSSDPHLDLRAARMLFLAAKEPRQWLEIKTNKHGTDIFATPQGVELERALAMFFAENLKDSGRSSTTEKDGK
On to B4, for which the “Proxy for plastic degradation” value in the data set with BHET was 0; in the data set with PET (pH 8, 30 °C), 0; in the data set with PET (pH 8, 60 °C), 0.

B5: unnamed (protein)
chain: QVYEIGHTTITFNDPSRSRDIETEIYYPADVAGENVAVSTGTFPVCVFGHGFTMSVDAYENFSDVLVPQGYIILLPSTEDGFSPNHDEFGLDLAFLVDEFQLENTNGTSLFYGAIAPETALMGHSMGGGCSFLAAESNSSVTTLVNFAAAETNTSAIAAAANITIPAVVFSGEVDPVAPPADHQIPMYNALASECKTYISINDGGHCYFANYNFYCTMGEEAMMPGGPPLTREEQQQTTLDFLSIWLDYTLKGNANALTVFNDSLASSPRITYQQDCNLTILDQINPNAEFKVYPNPADQFFILESSREIKHVLIYNSMGSICLERNKRHRIDISELPEGMYVIKAITESGSFTKKIMVLH
As to B5, the “Proxy for plastic degradation” value turned out to be 0 with BHET; 0 in the data set with PET (pH 8, 30 °C); 0 with PET (pH 8, 60 °C).

B6: unnamed (protein)
chain: MSRAFSFASVAALLVFFAASIWLARLDKGGPPHTELMLEGEVPATLYLPGDGEHREAFLDAPPRDERPPAVVMMHGFSGDRLSMSGISRRLAESGYAVLNIDARGHGQNRNPFSSSWAAPDLFYPDLLAAVEFLRAYPFVDGSRIAVMGHSMGAGASLDYASRDSAIGAAVLVSGGWRIQGPHRPPNTLFLYATGDPERIRGRSRQLAAGLAGVNDPEVGRTYGDPTRGDAVRLAEVAGADHQTIVWREAAVRETVAWLDATFGVARSPGPVPDDPRAPLLPLIWAAFLLVMVGLGQVVGRLVPAQPYRPGGGRIAGLAAIAAAFALTMPLLALGTPGFILSMEVGDVFVSHFALAGIVLLVAIRMREPELIDSLFAPRLLPTLIGAAVGTIGVFTLMRVFEPVMHRLTLTPERFLVFVMAALGLLPLALAFNLLLRRGTTAGATLTSLAGRVLVLLVLFAGVQVGILSMVMLFMLPALGFVCLQFEVLAAAIYASSRNLLALSLIDAAWLAMVIAAIMPIRI
Regarding B6, the “Proxy for plastic degradation” value with BHET came to 0; with PET (pH 8, 30 °C), 0; with PET (pH 8, 60 °C) it was 0.

B7: unnamed (protein)
chain: QSYEMGHRSEIYIDPSRGDRAIPTEIYYPSLTAGDDVPVADPPTGGFPVVAFAHGRMMPWDDYENIWGALAPQGFVVACPTTETGFMPNRTNFSLDLIYVISRIRLENSSATSPFYGKIGNASAVIGHSFGGVATFMAAIESDSITAIVTFASGQIDSVELAGISEPALIFAGTDDSLTPAATFQIPYYNNLGSSCKTLVNIIGGTHCHFAESSYYCDIGEAGFPPPGITRERQHELTNQFLIPWLDFMLNTDPVASDSFQTLLTTSGDILYLQDCDIMGVSRDDPTDLPGIIDLLAYPNPFNSAVRIGVERGEWRVENREIFDITGRMVAEIPAQSVIPDPDRESRGVVEGLDSRFHG
For the protein B7, the “Proxy for plastic degradation” value worked out at 0 with BHET; 0 in the data set with PET (pH 8, 30 °C); 0 with PET (pH 8, 60 °C).

B8: unnamed (protein)
chain: SRTRQILTEIYYPADTAGEEVPVAEPGAEGFPAVSFAHGRRMAWSAYSNFWEMLAPQGYIIVFPCTEMGLSPNHLDFALDCLFDAHKLQELNDLGTSIFYQKVGDTFAVTGHSMGGVVSFIAAIEDPTVTAIANFACGQASSYDLASVTAPALIFAGSDDYMTPVDQYQLLFYNELSSTCKALLILQGANHCQYAQYTSVCDDIEDQYPDPALTRTQQHAVTSTLLIPWLDYMLKGDEEAWTEFNVLAGDGDVTETHMICDLPFNTPTPASPPTPFVPATSSGGIGTLIVVISGTLALLSSRRK
With B8, the “Proxy for plastic degradation” value with BHET came to 0; in the data set with PET (pH 8, 30 °C) it was 0; with PET (pH 8, 60 °C), 0.

B9: unnamed (protein)
chain: MTKVNFQNKEEKRIVGILSIPKGKGPYPAVIFCHGLGSSKESPLIKTVSKKVRQVGFATFTFDCLGSRESDPYHSTAGITKRLSDLDAAIDFLAKHPRVDAERMGLYGHSLGGSVALVQASRDKRIKTAVLISPVIDFRRTGLRPINKKHMDEWDKREEILTINRKNKIVFRIPWDFFVDITSYDFVDIARKVACPVMIIHGTQDSLVPIQQSQILCQNLKNSELISLPWQKHFTRTTRKRKEAIVNSIFWFNKYLKKSATPSN
Take B9: the “Proxy for plastic degradation” value worked out at 0.1 with BHET; 0 with PET (pH 8, 30 °C); 0 with PET (pH 8, 60 °C).

B10: unnamed (protein)
chain: QSYQIGHTSIIYYDANRSNREIPTEIYYPAENEGDNVPVADPYSDGFPVISFGHGRMTTWSAYENIWSVLVQEGYIVAFACTEMSFIPNHTEFGLDIAFLVNRIQAEGIDSTSLFHGKIGTTSAVMGHSMGGATCFLSAQGNETITAITSFVSGNTSPSPIDAAVDITIPALLFSGSDDYMTPAEEYQIPIYEALNSDCKTLISITGGNHCQFAEYDYYCDTMEDNYPEPALTREEQHEVTNRFFISWVNFNLKGDFGAWYEFEDSLMTSEAITYMHDCDVTSVLEEPSETNIFMEYGLSNHPNPFNLTTTIKYELPKSAHISLKIYNISSKLIKTLVDEKENTGYNSVIWDGKDENGNPVPSGIYLYNIEIDGRVFSETKRMILLK
Take B10: the “Proxy for plastic degradation” value stood at 0 with PET (pH 8, 30 °C) and 0 in the data set with PET (pH 8, 60 °C).

B11: unnamed (protein)
chain: CTDNADTDGADGAEGSATEEGGTEESGKESGEESKADLAALAAEVEEPGPWAVGTTTVETTGARDRQLPVQVWYPVDTAVAATAEPATYDFPGIEVPAGAVTGASPAPGPFPLVIYSHGNGGLRYVSSFLAEHMASHGFVVMAPDHVGNTALDTFLGSRDETDQVAEDRPVDVQAVIDAATSGQAGLEEVSPVVDGEEVAVIGHSFGGYTALALASRQAEGDDSLDAIVGLAPASSGVDDTTLEAVGVPTLLISGTLDETTPIEEDTLRPAELVSGRPLVRADIDGAGHQSFTDVCDYLGIAESQPDLPAALVEAPQEYALEGCAPELIVIDEAQRITNRLVTAFLLETLYADDSWSPLLSPGAEEGQPLALLERED
Regarding B11, the “Proxy for plastic degradation” value came out at 0 with BHET; 0 with PET (pH 8, 30 °C); 0 with PET (pH 8, 60 °C).

B12: unnamed (protein)
chain: CGGGRVTPPDSPGEQMQAELAETLPEGGGREGRESDVAEVDREGESLDQGMDAEQTLPDAIGLTEEVGESGALYEAEGEAETIDGCDLADQGGEIEAWETLPPADVQQDEQLAAGTGDPFEWGPYEIGKKDYDFYDIQRMRLVPTTVWYPALPSGQSKAKYLLVVQGKAYVEPPAEPSGAPYPLVLFSHGYGGTRFQSVSYTEYLASHGYVVAAMDHIGNTFLDFFSDDAKVAQIALERPKDVRFVYQELVKLSNSGDGVMGGMVDQDRVAVTGHSFGGYTALVVAGAEIDVSEAIAACQSGAVSDIFCAYVEYWPAGEVIKLDPPIPGVQAAIYLAPGGYSAFGDQGLAAVKVPSMIFGGTLDDTCSVAVEIEPIYQALPPPKIEVLIQNGGHMSFTNLCDLPFAQFYLDKYCDVEGMIPAQQAFAVTNGLSVAFLDLYLKGVDAAAQYLTQEAVDEEFGYVELKAE
Turning to B12, the “Proxy for plastic degradation” value with BHET is 0.05; with PET (pH 8, 30 °C) it was 0; with PET (pH 8, 60 °C), 0.
